# Data: patent publication US20230060409
# Tested on: Ras
substance,measurement,value
mouse neurofibromin expressed from full-length mNf1 cDNA with exon 28 deleted,"Ras assays (GTP-Ras levels, p-ERK/ERK ratio, ELK1 transcriptional activity)",exon 28 deletion performed the worst in Ras assays as it retained the least function
